# According to paper doi:10.1101/2023.03.17.532992:
# Experiments:
# [1] = target: nucleosome core particle (recombinant X. laevis histone octamer on 601 positioning DNA) (X. laevis); test: native gel or EMSA
# [2] = target: nucleosome core particle (recombinant X. laevis histone octamer on 601 positioning DNA) (X. laevis); test: AUC
# [3] = target: nucleosome core particle (recombinant X. laevis histone octamer on 601 positioning DNA) (X. laevis); test: SEC-MALS
# [4] = target: nucleosome core particle (recombinant X. laevis histone octamer on 601 positioning DNA) (X. laevis); test: MST
Kd [1],decrease of binding affinity against wild type [1],Substance,further results
437 nM,,BCL7A (1-100) truncation mutant (from UniProt Q4VC05-2 1-100) (domain or fragment),
,50%,BCL7A P78S mutant protein (from UniProt Q4VC05-2 1-231) (natural protein),
,50%,BCL7A R11S mutant protein (from UniProt Q4VC05-2 1-231) (natural protein),
218 nM,,"BCL7A, full length human (isoform Q4VC05-2, 231 amino acids) (from UniProt Q4VC05-2 1-231) (natural protein)",stoichiometry N (BCL7A per NCP) [2]: 1; stoichiometry N (BCL7A per NCP) [3]: 1; Kd [4]: 230 nM
124 nM,,"BCL7C, full length (from UniProt Q8WUZ0 1-217) (natural protein)",
